Assay results taken from article doi:10.64898/2025.12.10.693372 (bioRxiv, 2025).

How the values were obtained:
[1] = target: T1, SARS-CoV-2 Omicron JD.1.1 spike (S-6P) (SARS-CoV-2 Omicron JD.1.1, S-GSAS/6P (furin cleavage site, residues 682–685) | F817P | A892P | A899P | …); experiment: cryo-EM structure; details: both partners purified
T1 construct: also called JD.1.1 S-6P; Omicron JD.1.1 S-trimer (S-6P)

[2] = target: T2, SARS-CoV-2 Omicron LP.8.1 spike (S-6P) (SARS-CoV-2 Omicron LP.8.1, S-GSAS/6P (furin cleavage site, residues 682–685) | F817P | A892P | A899P | …); experiment: cryo-EM structure; details: both partners purified
T2 construct: also called LP.8.1 S-6P; Omicron LP.8.1.1 spike (S-6P)

Row | Binder | stoichiometry N [1] [Fabs per S-trimer] | stoichiometry N [2] [Fabs per S-trimer]
1 | R102-9 Fab (Fab, V domains shown) VH: EVQLVESGGGLVQPGGSLRLSCAASGIIVSRNYMSWVRQAPGKRPEWVSLIYPGGSTFYADSVKGRFTISRDNSKNMLFLQMNSLRAEDTAVYYCARDLTIRGEASWGQGTLVTVSS VL: EIVMTQSPATLSVSPGERATLSCRASQSFNSNLAWYQQKPGQAPRLLIYGASTRATGIPARFSGSGSGTEFTLTISSLQSEDFAVYYCQQYGDWPLWTFGQGTKVEIK | 3 | –
2 | C092 Fab (Fab, V domains shown) VH: QVQLVQSGAEVKKPGSSVKVSCKASGGSFTNHFISWVRQAPGQGLEWMGRIIPILGTANYAQNFQGRVMMTADKSTSTAYMELSSLRSEDTAVYYCARDSGYSGYGSTYYMDVWGKGTTVTVSS VL: QSVLTQPPSVSGAPGQRVTISCTGSNSNIGAGYDVHWYQQLPGAAPKLLIYGNNNRPSGVPDRFSGSKSDTSASLAITGLQVEDEADYYCQSYDSSLSDSVFGSGTKVTVL | 3 | –
3 | ZL58 Fab (Fab, V domains shown) VH: QLELVQSGGGLVQPGGSLRLSCAASEIAVSRNYMNWVRQGPGKGLEWVSIIYPGGSTFYADSVKGRFTISTDDSKNTLYLQMDSLSTDDTALYYCARQGPNGRNDFWGQGTLVTVSS VL: DIQMTQSPSSLSASAGERVTITCQASQDINMYLNWYQQKPGKAPKLLIYDASNLETGVPSRFSGSGSVTEFTFTISSLQPEDIGTYYCHQYDSFPPTFGGGTKVDLK | – | 3
4 | ZL525 Fab (Fab, V domains shown) V domain 1: QVQLVQSGAEVKKPGSSMKVSCQASGGTFSSHPISWIRQAPGQGLEWMGRIIPIAGMTDYGQKFQGRITITADTSTSTSYVELRGLRSQDTAFYYCAKDVGYSDYGSAYYFHTWGQGTLITVSS V domain 2: QSVLTQPPSVSGAPGQRVTISCTGSNSNIGAGYDVHWYQQLPGTAPKLLIYRNNKRPSGVPDRFSGSKSDTSASLAITGLQAEDEAHYYCQSFDSSLGGSLFGGGTKLAVL | – | 3
